Measured values published in patent US20030091990A1, “Methods and compositions involving thymidine phosphorylase as a marker for HIV infection, aids progression, and drug resistance” (priority 2001, published 2003).

System: resting CD4+ T lymphocytes
Test: Affymetrix GeneChip Expression Analysis of resting CD4+ T lymphocytes
Format: cell-based
Conditions: incubated 3 hrs at 37° C.; Human Genome U95A chips; fold changes from +2.0 to -2.0 removed; comparison with Mock control
Protocol: To investigate the changes in RNA expression of resting CD4+ T lymphocytes by HIV-1, Affymetrix GeneChip® Expression Analysis was done. Purified resting CD4+ T lymphocytes (purity of >98%) prepared from a healthy donor by StemCell™ magnetic column technique were incubated with HIV-1213 ((M.O.I. 0.5-1), IL-16 (10 ng/ml), or MHC II peptide (50 μM, RK1) in a 37° C. humidified 5% CO2 incubator for 3 hrs). Then, total cytoplasmic RNA was extracted by using RNA isolation kit (Qiagen) according to the manufacturer's instructions. Isolated RNA was applied on the Human Genome U95A chips, containing 12,626 full-length genes (Affymetrix, Santa Clara, Calif.). Data were generated from hybridization intensities measured on GeneChip expression probe arrays and analyzed by GeneChip software provided by Affymetrix. In order to compare gene expression levels between two samples (Mock, HIV213, IL-16 and MHC II peptide), Comparison Analysis was performed on data from two separate probe array experiments by determining the relative changes in abundance for each transcript. All moderate increase, moderate decrease and no change were removed. All fold changes from +2.0 to −2.0 were also removed. […] TP (PDECGF) was one of the molecules that have shown great change in its mRNA level when CD4 T cells were signalled with HIV (48 fold change). […]

B1: IL-16: IL-16 (10 ng/ml) incubated with resting CD4+ T lymphocytes (protein, UniProt Q14005 1212-1332, looked up)
Interleukin-16: SAASASAASDVSVESTAEATVCTVTLEKMSAGLGFSLEGGKGSLHGDKPLTINRIFKGAASEQSETVQPGDEILQLGGTAMQGLTRFEAWNIIKALPDGPVTIVIRRKSLQSKETTAAGDS
genes changed vs. Mock: 84 genes
